From paper PMC9166766

Molecular target: GAL4 DBD-tagged VIVIT PPTP chimeric peptide
Assay: two-hybrid; mammalian two-hybrid in HEK293T cells: GAL4 DBD-tagged peptides, VP16 activation domain-tagged CNAβ2 and pG5-luc cotransfected for 24 h, luciferase read-out; Fig. 4b with or without 1 μM ionomycin

fold change of the two-hybrid signal against L-1-2 WT: 1.93 fold
fold change of the two-hybrid signal against VIVIT 10-mer: 4.76 fold
Substance: VP16 activation domain-tagged CNAβ2
